Measured values from the supplement of paper PMC9732359.
± gives the uncertainty stated by the source.

Assay: protein stability index of a GFP-peptide fusion (yeast GPS) (PSI 1-4); higher = more stable; sorted into four equal gates, so the index is relative within each strain
Summary of the method: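 Sequencing reads from sorted gates were used to score each peptide. The library consisted of tiled 17-residue yeast protein peptides fused downstream of GFP on a Cherry-expressing plasmid, pooled and carried in yeast. Mid-log cultures in leucine-free medium were split into four equal gates by GFP/Cherry ratio, and each gate's plasmids were PCR-amplified and Illumina-sequenced. The protein stability index adds up, over all gates, the read frequency multiplied by the gate number.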

Sequence	protein stability index (doa10∆)	protein stability index (pdr5∆)	protein stability index (san1∆)	protein stability index (ubr1∆)
KHAEFDLSLLGYCDDIA [SIR2]	3 ± 0.088	2.68 ± 0.066	2.99 ± 0.056	2.32 ± 0.063
FHSTYLMNGVKPFKSFL [FAS1]	2.65 ± 0.12	2.55 ± 0.078	3.33 ± 0.15	2.87 ± 0.068
WSEISNELPDIEALYDD [RPN2]	3.49 ± 0.29	3.57 ± 0.25	3.29 ± 0.16	3.12 ± 0.11
KAERVEDQKVVDKALIA [RPL6A]	3.25 ± 0.057	3.5 ± 0.06	3.4 ± 0.044	3.5 ± 0.05
TTILSFSSPAALMKTLI [NUT1]	1.65 ± 0.047	1.75 ± 0.05	2.09 ± 0.1	1.78 ± 0.054
PYLLETYANVLIPCKYL [RPN7]	1.32 ± 0.067	1.43 ± 0.063	1.19 ± 0.099	1.18 ± 0.062
NFKDMSHVNKYGLIRGL [PRP8]	2 ± 0.069	1.47 ± 0.067	2.19 ± 0.13	1.16 ± 0.032
KRPTPPSFTFGGSTTNN [YOR098C/NUP1]	2.74 ± 0.051	3.03 ± 0.048	2.78 ± 0.043	2.9 ± 0.032
YGVSFFTIQSFVSSLSN [BRR2]	1.47 ± 0.052	1.32 ± 0.058	1.18 ± 0.087	1.42 ± 0.054
GAQFSRSYDLTRHQNTI [RPN4]	1.16 ± 0.12	1.67 ± 0.11	1.85 ± 0.18	2.53 ± 0.099
ISIPKTCDEIQNFENDF [REC8]	2.8 ± 0.077	2.92 ± 0.068	2.61 ± 0.056	2.85 ± 0.046
DSSSQCIVDFTNPKLKS [YMR129W/POM152]	2.2 ± 0.053	2.43 ± 0.058	2.33 ± 0.072	1.96 ± 0.044
PPPGLDELETKAEKKVE [PRP8]	3.02 ± 0.06	3.21 ± 0.048	3.13 ± 0.05	3.08 ± 0.049
TPYNIDRLTQLVRNGPN [RPO21]	3.05 ± 0.12	3.19 ± 0.13	3.17 ± 0.076	3.18 ± 0.2
TQEIRPVNTGVLHVSAK [RRP40]	2.72 ± 0.12	2.91 ± 0.1	2.74 ± 0.081	3.01 ± 0.11
VKNTNANPVVATDPVAA [SWP82]	2 ± 0.1	2.91 ± 0.1	2.5 ± 0.091	2.47 ± 0.061
VAALALLFAINSYQPSP [SMC1]	1.62 ± 0.059	1.55 ± 0.073	1.89 ± 0.11	2.42 ± 0.055
YEIRDIDQDIHGIVFQH [SSN2]	2.5 ± 0.049	2.6 ± 0.056	2.72 ± 0.051	2.75 ± 0.033
LIKDNSAMVTTAAAADI [SRB2]	–	1.78 ± 0.29	–	–
NKLVMKSKFNKSNRSYS [GAL11]	2.92 ± 0.059	2.99 ± 0.099	3.01 ± 0.064	3.01 ± 0.053
FLERKCVHMVYEYAEHD [SSN3]	1.71 ± 0.061	1.67 ± 0.071	1.69 ± 0.09	1.83 ± 0.046
NSQLVGKPHFSLLGGFD [PCI8]	2.42 ± 0.087	2.33 ± 0.09	2.34 ± 0.18	2.54 ± 0.053

Sequence	protein stability index (doa10∆)	protein stability index (pdr5∆)	protein stability index (san1∆)	protein stability index (ubr1∆)
HIPRLIPKQLLDDEKIF [YJL039C/NUP192]	1.44 ± 0.18	1.54 ± 0.088	1.87 ± 0.19	1.31 ± 0.08
DPSQNRLTGSLLAHKVA [RPC37]	2 ± 0.05	2.15 ± 0.06	1.69 ± 0.095	2.31 ± 0.038
DLVLGKPLADLRPLFTR [YLR335W/NUP2]	2.97 ± 0.072	2.76 ± 0.11	2.84 ± 0.16	2.27 ± 0.069
RLKEKGSRVLIFSQMSR [ISW2]	1.67 ± 0.056	2.19 ± 0.066	1.53 ± 0.11	2.06 ± 0.057
RDHEKDTYRTLMEEIES [YIL149C/MLP2]	3.31 ± 0.044	3.38 ± 0.043	3.414 ± 0.031	3.26 ± 0.037
SRSNFQGKHTKFENDEL [LRP1]	3.28 ± 0.091	2.99 ± 0.085	3.02 ± 0.06	3.22 ± 0.064
SWYLNTFDGIRMSSEEV [GRR1]	2.73 ± 0.061	2.1 ± 0.059	2.13 ± 0.066	2.27 ± 0.043
KNSRVELQKIYDRHQSS [SMC4]	3.46 ± 0.098	3.01 ± 0.15	3.37 ± 0.11	3.14 ± 0.11
IIMHKDVEIGRMPIMLR [RET1]	3.29 ± 0.26	3.18 ± 0.16	2.98 ± 0.079	2.72 ± 0.16
LDSLMKTTRLLLIIRSL [YJL039C/NUP192]	1.63 ± 0.044	1.39 ± 0.039	1.32 ± 0.077	1.27 ± 0.04
SNDVLKPETPKGPIIIS [SIR2]	3 ± 0.11	2.92 ± 0.077	2.78 ± 0.071	2.7 ± 0.077
SSLFLDGLEKAAFNGVT [FAS2]	2.3 ± 0.06	2.12 ± 0.062	2.02 ± 0.092	2.88 ± 0.063
DTIMENPEPNKKNIQKA [IRR1]	2.36 ± 0.25	2.84 ± 0.13	3.18 ± 0.2	2.99 ± 0.11
SNVLDGNKNQFEPSISR [LRP1]	3 ± 0.086	2.95 ± 0.074	3.12 ± 0.046	3.36 ± 0.091
VVLVSGEGERFTVDKKI [SKP1]	3.53 ± 0.11	3.6 ± 0.12	3.28 ± 0.075	2.97 ± 0.094
DTSGLKISNSEFFNPEI [SIN4]	3.21 ± 0.096	3.44 ± 0.12	3.1 ± 0.058	3.29 ± 0.074
AEWSLVRIYSGLLKRGD [SNU114]	2.95 ± 0.093	3.27 ± 0.1	3.26 ± 0.079	3.29 ± 0.12
GDYGSAKCNSLLQLKYF [POP5]	2.31 ± 0.049	2.24 ± 0.056	2.23 ± 0.067	2.59 ± 0.071
TIVTGGGSGNGDDVVND [RPP1]	3.14 ± 0.26	3.6 ± 0.17	3.22 ± 0.12	3.54 ± 0.21
SDPNNQSLNEMVKLIVM [YJL039C/NUP192]	2.66 ± 0.066	2.74 ± 0.052	2.97 ± 0.078	2.35 ± 0.056
DIGSDPTLPRSDRECPK [RPB9]	2.7 ± 0.069	2.94 ± 0.078	2.85 ± 0.076	3.14 ± 0.082
SVEEVILERAYKKLDID [SNF2]	3.23 ± 0.16	3.07 ± 0.24	2.95 ± 0.13	–
